# Assay results taken from article PMC12416549 (2024).
# T1: TNFR1 (Homo sapiens, UniProt P19438)
# T1 chain: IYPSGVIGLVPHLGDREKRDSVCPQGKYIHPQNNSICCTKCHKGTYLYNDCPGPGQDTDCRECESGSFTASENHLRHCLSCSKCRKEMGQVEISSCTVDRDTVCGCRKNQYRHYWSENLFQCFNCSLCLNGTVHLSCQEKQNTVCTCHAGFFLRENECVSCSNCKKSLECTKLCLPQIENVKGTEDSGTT
# Target: T1, TNFR1
# Experiment: yeast display SC50
row,Binder,apparent Kd (screen) [nM]
1,I49Y (designed binder) MTLQELLREEALRRAEAEAFRYALELLAEKFPEQKEYLLDLAEEIESQYRSLSGVDVEDVRKFLDKEWAWVKELLAEHPAELAEVEAARAARLAELRAEVEAKVAA,2.48
2,I49Q (designed binder) MTLQELLREEALRRAEAEAFRYALELLAEKFPEQKEYLLDLAEEIESQQRSLSGVDVEDVRKFLDKEWAWVKELLAEHPAELAEVEAARAARLAELRAEVEAKVAA,0.368
3,F31H (designed binder) MTLQELLREEALRRAEAEAFRYALELLAEKHPEQKEYLLDLAEEIESQIRSLSGVDVEDVRKFLDKEWAWVKELLAEHPAELAEVEAARAARLAELRAEVEAKVAA,1.4
4,A17S (designed binder) MTLQELLREEALRRAESEAFRYALELLAEKFPEQKEYLLDLAEEIESQIRSLSGVDVEDVRKFLDKEWAWVKELLAEHPAELAEVEAARAARLAELRAEVEAKVAA,0.956
5,A28H (designed binder) MTLQELLREEALRRAEAEAFRYALELLHEKFPEQKEYLLDLAEEIESQIRSLSGVDVEDVRKFLDKEWAWVKELLAEHPAELAEVEAARAARLAELRAEVEAKVAA,7.78
6,F63A (designed binder) MTLQELLREEALRRAEAEAFRYALELLAEKFPEQKEYLLDLAEEIESQIRSLSGVDVEDVRKALDKEWAWVKELLAEHPAELAEVEAARAARLAELRAEVEAKVAA,1.27
7,Q48E (designed binder) MTLQELLREEALRRAEAEAFRYALELLAEKFPEQKEYLLDLAEEIESEIRSLSGVDVEDVRKFLDKEWAWVKELLAEHPAELAEVEAARAARLAELRAEVEAKVAA,0.142
8,R21N (designed binder) MTLQELLREEALRRAEAEAFNYALELLAEKFPEQKEYLLDLAEEIESQIRSLSGVDVEDVRKFLDKEWAWVKELLAEHPAELAEVEAARAARLAELRAEVEAKVAA,0.653
9,K62M (designed binder) MTLQELLREEALRRAEAEAFRYALELLAEKFPEQKEYLLDLAEEIESQIRSLSGVDVEDVRMFLDKEWAWVKELLAEHPAELAEVEAARAARLAELRAEVEAKVAA,0.718
10,L24S (designed binder) MTLQELLREEALRRAEAEAFRYASELLAEKFPEQKEYLLDLAEEIESQIRSLSGVDVEDVRKFLDKEWAWVKELLAEHPAELAEVEAARAARLAELRAEVEAKVAA,0.869
11,A17E (designed binder) MTLQELLREEALRRAEEEAFRYALELLAEKFPEQKEYLLDLAEEIESQIRSLSGVDVEDVRKFLDKEWAWVKELLAEHPAELAEVEAARAARLAELRAEVEAKVAA,0.229
12,E5G (designed binder) MTLQGLLREEALRRAEAEAFRYALELLAEKFPEQKEYLLDLAEEIESQIRSLSGVDVEDVRKFLDKEWAWVKELLAEHPAELAEVEAARAARLAELRAEVEAKVAA,0.653
13,L64E (designed binder) MTLQELLREEALRRAEAEAFRYALELLAEKFPEQKEYLLDLAEEIESQIRSLSGVDVEDVRKFEDKEWAWVKELLAEHPAELAEVEAARAARLAELRAEVEAKVAA,5.31
14,M1L (designed binder) LTLQELLREEALRRAEAEAFRYALELLAEKFPEQKEYLLDLAEEIESQIRSLSGVDVEDVRKFLDKEWAWVKELLAEHPAELAEVEAARAARLAELRAEVEAKVAA,0.653
15,K30C (designed binder) MTLQELLREEALRRAEAEAFRYALELLAECFPEQKEYLLDLAEEIESQIRSLSGVDVEDVRKFLDKEWAWVKELLAEHPAELAEVEAARAARLAELRAEVEAKVAA,0.539
16,E25K (designed binder) MTLQELLREEALRRAEAEAFRYALKLLAEKFPEQKEYLLDLAEEIESQIRSLSGVDVEDVRKFLDKEWAWVKELLAEHPAELAEVEAARAARLAELRAEVEAKVAA,0.446

# Results, then the binder that gave them:
row,apparent Kd (screen) [nM],Binder
1,0.593,A105E (designed binder) MTLQELLREEALRRAEAEAFRYALELLAEKFPEQKEYLLDLAEEIESQIRSLSGVDVEDVRKFLDKEWAWVKELLAEHPAELAEVEAARAARLAELRAEVEAKVEA
2,0.593,V104K (designed binder) MTLQELLREEALRRAEAEAFRYALELLAEKFPEQKEYLLDLAEEIESQIRSLSGVDVEDVRKFLDKEWAWVKELLAEHPAELAEVEAARAARLAELRAEVEAKKAA
3,0.539,A83S (designed binder) MTLQELLREEALRRAEAEAFRYALELLAEKFPEQKEYLLDLAEEIESQIRSLSGVDVEDVRKFLDKEWAWVKELLAEHPAELSEVEAARAARLAELRAEVEAKVAA
4,0.79,P79V (designed binder) MTLQELLREEALRRAEAEAFRYALELLAEKFPEQKEYLLDLAEEIESQIRSLSGVDVEDVRKFLDKEWAWVKELLAEHVAELAEVEAARAARLAELRAEVEAKVAA
5,0.49,A76R (designed binder) MTLQELLREEALRRAEAEAFRYALELLAEKFPEQKEYLLDLAEEIESQIRSLSGVDVEDVRKFLDKEWAWVKELLREHPAELAEVEAARAARLAELRAEVEAKVAA
6,5.31,E73P (designed binder) MTLQELLREEALRRAEAEAFRYALELLAEKFPEQKEYLLDLAEEIESQIRSLSGVDVEDVRKFLDKEWAWVKPLLAEHPAELAEVEAARAARLAELRAEVEAKVAA
7,0.718,V104L (designed binder) MTLQELLREEALRRAEAEAFRYALELLAEKFPEQKEYLLDLAEEIESQIRSLSGVDVEDVRKFLDKEWAWVKELLAEHPAELAEVEAARAARLAELRAEVEAKLAA
8,1.16,A106C (designed binder) MTLQELLREEALRRAEAEAFRYALELLAEKFPEQKEYLLDLAEEIESQIRSLSGVDVEDVRKFLDKEWAWVKELLAEHPAELAEVEAARAARLAELRAEVEAKVAC
9,0.593,A88R (designed binder) MTLQELLREEALRRAEAEAFRYALELLAEKFPEQKEYLLDLAEEIESQIRSLSGVDVEDVRKFLDKEWAWVKELLAEHPAELAEVEARRAARLAELRAEVEAKVAA
10,0.718,R92C (designed binder) MTLQELLREEALRRAEAEAFRYALELLAEKFPEQKEYLLDLAEEIESQIRSLSGVDVEDVRKFLDKEWAWVKELLAEHPAELAEVEAARAACLAELRAEVEAKVAA
